# From the DeepSol protein solubility set
# Assay: soluble on expression in E. coli; label from the status in PepcDB or PDB records
row,Sequence,soluble on expression in E. coli
1,SVFADQVGVQVIGVNDFHGALDNTGTANMPDGKVANAGTAAQLDAYMDDAQKDFKQTNPNGESIRVQAGDMVGASPANSGLLQDEPTVKNFNAMNVEYGTLGNHEFDEGLAEYNRIVTGKAPAPDSNINNITKSYPHEAAKQEIVVANVIDKVNKQIPYNWKPYAIKNIPVNNKSVNVGFIGIVTKDIPNLVLRKNYEQYEFLDEAETIVKYAKELQAKNVKAIVVLAHVPATSKNDIAEGEAAEMMKKVNQLFPENSVDIVFAGHNHQYTNGLVGKTRIVQALSQGKAYADVRGVLDTDTQDFIETPSAKVIAVAPGKKTGSADIQAIVDQANTIVKQVTEA,not soluble
2,MDSDLYDEFGNYIGPELDSDDDAGDIDDNGDDEDRSDVDEDDEPDRMEEDDAEEIPQNQVVLHEDKKYYATALEVYGEGVETLVQEEDAQPLTEPIVKPVSKKKFQAAERFLPETVYKKEYLADLMDCPHIMRNVAIAGHLHHGKTTFLDCLMEQTHPEFYRAEDADARFTDILFIEKQRGCSIKSQPVSIVAQDSRSKSYLLNIIDTPGHVNFSDEMTASYRLADGVVVMVDAHEGVMMNTERAIRHAIQERLAVTLCISKIDRLLLELKLPPADAYFKLRLIIDQVNNILSTFAEEDVPVLSPLNGNVIFSSGRYNVCFSLLSFSNIYAKQHGDSFNSKEFARRLWGDIYFEKKTRKFVKKSPSHDAPRTFVQFILEPMYKIFSQVVGDVDTCLPDVMAELGIRLSKEEQKMNVRPLIALICKRFFGDFSAFVDLVVQNIKSPLENAKTKIEQTYLGPADSQLAQEMQKCNAEGPLMVHTTKNYPVDDATQFHVFGRVMSGTLEANTDVRVLGENYSIQDEEDCRRMTVGRLFVRVASYQIEVSRVPAGCWVLIEGIDQPIVKTATIAELGYEEDVYIFRPLKFNTRSCVKLAVEPINPSELPKMLDGLRKVNKSYPLLTTRVEESGEHVLLGTGEFYMDCVMHDMRKVFSEIDIKVADPVVTFNETVIETSTLKCFAETPNKKNKITMMAEPLEKQLDEDIENEVVQIGWNRRRLGEFFQTKYNWDLLAARSIWAFGPDTTGPNILLDDTLPSEVDKHLLSTVRESLVQGFQWATREGPLCEEPIRQVKFKLLDAAIATEPLYRGGGQMIPTARRCAYSAFLMATPRLMEPYYTVEVVAPADCVAAVYTVLAKRRGHVTTDAPMPGSPMYTISAYIPVMDSFGFETDLRIHTQGQAFCMSAFHHWQLVPGDPLDKSIVIKTLDVQPTPHLAREFMIKTRRRKGLSEDVSVNKFFDDPMLLELAKQQDYTGF,soluble
3,MRFVPSYLIGFITLYLKGKVMLSIFDIYKIGVGPSSSHTNGPMIAGYRFVQQLLPQLNKVARIQVDLYGSLSLTGKGHHTDRATLLGLMGNQPATIKIGDANQTLREALQTGKLRLNGQHDIAFDYHQDLLFHQDNLPLHENGMTLSAFDTQGQQIDFETYYSVGGGFVATAEQLQNGT,not soluble
4,MAERGFREGTLEEASKILGVDKSSLASLSNLLAEKGVVEVEERVEEHYVLTERGRDALERGLPEEKLVLFLAGRGGEASVEEVRRALGEEAGIALGQAARKGLVVIAGGVVRLAVDQAEALKTITPLKKLLENVASGSKPTVGDELLREALSRGLIRREARRSIVLRLKVNPAEALARARVEAAVLTRDMLKSGEWRRLRFKPYNVKAEPPRVLPARRHFLAEFIERLRDILRELGFREVRGPLVELELFNFDVLFQAQDHPAREIHDSLWIKSPRRGDLSGYSDLVERVASVHERGWKYRWSPEVASRYILRSQTTAVSARILATRPNPPARFFTVGKVFRSDAVGPTRLPEFHQLDGIEGDEGYTFRDLLGRLDEIASMLGLKLKFKPAYFPFTEPSVEGYVKLPNGRWLELFGAGMFRPEVLEAVGVDYPVGAWGFGIERLAMAFYGVSDIRKLYTRNVDEVREMRVRWL,soluble
5,MGSDKIHHHHHHMTSKNQSPLASDHPLAMPDTEISAREVFGIDIDMLVPAFSVGSEHVPDVDPAYRFDPDTTKAILAGFAFNRRVMVQGYHGTGKSTHIEQVAARLNWPCIRVNLDSHVSRIDLIGKDAIVVKDGKQITEFREGMLPWALQHPCALVFDEYDAGRPDVMFVIQRVLEVEGRLTLLDQNRVIRPHAAFRLFATANTVGLGDTTGLYHGTQQINQGQMDRWNIVATLNYLAHDDECSIVVAKLKDYDTPEGRDLVSKMVMLADLTRQGFMNGDISTVMSPRTVITWAENTRIFGDHSYGFRVTFLNKCDEVERPILAEYYQRCFGTDLPDGPARMLA,not soluble
6,SNAMKMSELEKMLKGEHFDGASAEIEALRSQAGRLKLEINQSLDEAERYALQRELFGHLGHKSCVQPPFHCEFGKTIRIGDHTFINMNVVMLDGAPITIGDHVLIGPSTQFYTASHSLDYRRRQAWETICKPIVIEDDVWIGGNVVINQGVTIGARSVVAANSVVNQDVPPDTLVGGTPARILRSLKDPAESMAE,soluble
7,MSNLLGPRDANGIPVPMTVDESIASMKASLLKKIKRSAYVYRVDCGGCNGCEIEIFATLSPLFDAERFGIKVVPSPRHADILLFTGAVTRAMRSPALRAWQSAPDPKICISYGACGNSGGIFHDLYCVWGGTDKIVPVDVYIPGCPPTPAATLYGFAMALGLLEQKIHARGPGELDEQPAEILHGDMVQPLRVKVDREARRLAGYRYGRQIADDYLTQLGQGEEQVARWLEAENDPRLNEIVSHLNHVVEEARIRLEHHHHHH,not soluble
8,MAHHHHHHMRRSSMKFGLRQILSEELGKAAIFLRFKANEYIASTARACQTLTGAETNPEQANKRRKHRQVYEEILRQRQQVAQEAARRAMEGKSLRERLMASASAALKGLKEATSTNAGALALLQHCTAAHAAEVAVEQGIDVKSVTMQVEERKTGSQVGSETVVVGYIDAPNTSEEEMMAFAEQLSKKCPMANAMRGKIEWRRANGEVQHNDEQTTGNDNSVGSTSDKAGDAGSIPHGMPGTRYYSHESMRRGAGGVGDGDELHLPGVTKGSGKGPDK,soluble
9,MHMNAEEIGMALLNGRKELGLRQGELADLAGVSERFIRDVEKGKTTVRLDKVIDVLRVLGLELSVGIHDPLKVNQ,not soluble
10,MAHHHHHHMGGRTAFEDVCANEAKAWSICLETNLGGKDVRKKCGEQQQTFDTCVSAWRTKVGNAVQVKGENEGDPPFQCASMACHIGECLRKYNYDFDRCEPHTQFFKYCVKSFYGQDYIS,not soluble
11,GSHMASMTGGQQMGRGSNNGDICIKDSINTLWTGINPPPNCQIVENTNTNDGKLTLVLVKNGGLVNGYVSLVGVSDTVNQMFTQKTANIQLRLYFDSSGNLLTEESDLKIPLKNKSSTATSETVASSKAFMPSTTAYPFNTTTRDSENYIHGICYYMTSYDRSLFPLNISIMLNSRMISSNVAYAIQFEWNLNASESPESNIATLTTSPFFFSYITEDDN,soluble
12,MGSDKIHHHHHHMKVAYLSSAYLAPVEYYSKLLNYDKIFIEQHDHYMKQTYRNRCTIAGPEGELALSIPIVKPEEPKCPMKDIRISDHGNWRHLHWNAIESAYNSTPFFEYYKDDFRPFYEKKYEFLTDFNEELCRLVCELIDIQPAIERTKEYKTDFAPNEIDFREAIHPKKDFHRTDPEFIPQPYYQVFEARYGFLPNLSIIDLLFNMGPESLLILQKTCADSQ,not soluble
13,MGSDKIHHHHHHMLMKSSTEQIRRQNSALVLAALRVEQAMSHTQIAAVTGLASATVTAITSELEQAGVIERHEQQIAGARGRPRVALSRRRDFAYVMSVRISSDRLNYTLSDFRGKLMDRFEEPRPLDVSAAGFIEGLGRNLARLASRSKLEPEKVAVLSVSSKGIVDAGGARLLWTPVFGQQPLDLKAALGDFEKAMALLSNETLLVAHGLSRRMDAQDGTFRGLIALSLGHSIGLGIARPMPDGTVAVSAPNFGHMLNTADSKLCRCGARGCIEASAGFYGILRMAFEVRPDTIPAKFVPITEMDKIALSARQGNRMAQYAFRQAGLALGQGLSRVFSLHETLPVTITGPGTRYYDLLAQGLEEGLAQSLQVRLDGAPPISLVGDEADLVQEGHVDHALRAIDERLFGGG,not soluble
14,MAHHHHHHMYQGRSQQPLWTPPPNFSQVETGIYRSAYPTLASVPFLHHIGIKTIVLLSIELLPVPVVRAISEGDVVAGTTSVSDDVHAWKDNECIKWPIRIVSTADLSEWMNEYVCAKDDFAVSSVQRALDFALQPDFQPVLFTCPTGELQTSVIVGCMRRHQGWSLAAVLAECELFVNVTGGVRQSVMNFIEQWDPDEHPVREEDIAKRKRELLLRDPSLSYSVKRHRRTVTHSASDPDSEYDDPLAMGTSRLGQKGTAGNSAGMGLSLSPYKSSGFDRSTLSSTRVGGDELGLSHSSHVVIKLASWYTAAMKRRAAAAEAIVAARAKVRAPSDPLPEPHERYFGVLNPPALDERSTFTKKSIVQDLD,not soluble
